These results are taken from patent US20210122824A1 (ADAGENE, published 2021).

Test [1] has as its target T1, human PD-L1 expressed on cell surface (human, UniProt Q9NZQ7 19-290). In words: cell-based or functional assay.
The target of test [2] is T1, human PD-L1 expressed on cell surface. In words: flow cytometry on cells expressing human PD-L1 (legend of FIG. 5).
Source text: (§1) The cells were washed once prior to analysis by flow cytometry (Beckman® CytoFlex).
For test [3] the target is unchanged. The test is described as follows: cell ELISA on HCC827 cells fixed with 4% paraformaldehyde, absorbance at 450 nm.
Procedure: Antibodies were also examined for their ability to bind to cell surface PD-L1 after fixation with paraformaldehyde. Briefly, 10,000 PD-L1-expressing HCC827 human cells (Cell Bank, Type Culture Collection of Chinese Academy of Sciences) were plated in a 96 well plate. After overnight incubation in tissue culture incubator the cells were fixed with 4% paraformaldehyde and blocked with 1% BSA.
For test [4] the target is unchanged. The test is described as follows: flow cytometry on stable cell line 293T-002 expressing PD-L1; 293T-002 cells expressing PD-L1, flow cytometry. In general terms: In flow cytometry, cells or beads pass a laser one at a time.
Source text: as §1
Test [5] shares this target. The test is described as follows: flow cytometry, HEK293F cells transiently expressing the target, 100 nM antibody, PE anti-human Fc; Mean (PE-A against FITC-A, GFP surrogate).
Procedure: (§2) The selectivity of antibodies for PD-L1 was evaluated using flow cytometry. Briefly, human, rhesus and mouse PD-L1, as well as human PD1, CTLA4, LAG3, TIM3 and B7-H3 were transiently expressed on the membrane of HEK293F cells individually. Transfected cells were washed in pre-chilled staining buffer (PBS supplemented with 2% FBS), then incubated with 100 nM test antibodies for 1 hr on ice. Cells were washed twice with staining buffer, and Phycoerythrin (PE)-conjugated mouse anti-human Fc antibodies were added and incubated for 30 min on ice. Samples were washed once with staining buffer prior to analysis by flow cytometry.
Test [6] deals with T2, rhesus PD-L1 expressed on HEK293F cells (rhesus, UniProt F6VEW6 19-290).
T2 construct: whole, on cells
Described as above.
Procedure: as §2

In test [7] the target is T3, human PD1 expressed on HEK293F cells (human, UniProt Q15116 25-288).
T3 construct: whole, on cells
The test is described as above.
Procedure: as §2

Test [8] addresses T1, human PD-L1 expressed on cell surface. The test is described as follows: blocking by flow cytometry, HEK293F cells expressing full-length human PD-L1, 100 nM antibody then 100 nM biotinylated PD1-His (blocked ligand), Alexa fluor 633 streptavidin; isotype control panel Q2 35.1%.
Procedure: The plasmid encoding full-length human PD-L1 was transiently expressed in HEK293F cells. Cells were washed with staining buffer (PBS supplemented with 1% BSA) and resuspended in staining buffer containing 100 nM test antibodies. […] Cells were then washed once and analyzed by CytoFlex flow cytometry.

T1 sequence (Q9NZQ7 19-290): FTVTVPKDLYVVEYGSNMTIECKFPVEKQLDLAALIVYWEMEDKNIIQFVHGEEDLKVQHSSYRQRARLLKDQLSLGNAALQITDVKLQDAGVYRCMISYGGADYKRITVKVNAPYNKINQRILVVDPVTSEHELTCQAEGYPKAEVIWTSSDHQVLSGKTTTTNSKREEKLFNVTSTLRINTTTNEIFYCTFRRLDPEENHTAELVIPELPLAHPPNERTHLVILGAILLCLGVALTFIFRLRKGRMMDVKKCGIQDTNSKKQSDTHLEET
T3 sequence (Q15116 25-288): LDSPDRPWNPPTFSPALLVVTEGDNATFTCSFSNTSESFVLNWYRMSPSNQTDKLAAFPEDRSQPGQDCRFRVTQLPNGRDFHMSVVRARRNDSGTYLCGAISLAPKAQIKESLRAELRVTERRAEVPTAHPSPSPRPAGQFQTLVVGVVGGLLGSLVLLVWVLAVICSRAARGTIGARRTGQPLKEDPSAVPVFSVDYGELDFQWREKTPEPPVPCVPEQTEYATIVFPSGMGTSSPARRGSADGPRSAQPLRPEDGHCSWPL

B1: TY21421 (antibody, V domains shown)
VH: EVQLVESGGGLVQPGGSLRLSCAASGYSISSGYYWGWIRQAPGKGLEWIGIIYPSGGGTNYAQKFQGRVTISRDNSKNTLYLQLNSLRAEDTAVYYCARGGGLGFDYWGQGTLVTVSS
VL: DIQLTQSPSSLSASVGDRVTITCRASQSIPSFLNWYQQKPGKAPKLLIYAASSLQSGVPSRFSGSGSGTDFTLTISSLQPEDFATYYCQHYISWPRQFTFGQGTKVEIKR
notes: IgG1 (wild type) made from Fab B15041, from HEK293F cells
In general, EC50 refers to the midpoint of the concentration-response curve. A higher EC50 goes with lower potency in that assay. B1: the “Relative luminescence units (RLU), Promega PD1/PD-L1 reporter gene assay; EC50” value in test [1] is 390 pM. Moreover, the values for the EC50 in test [2], in test [3] and in test [4] were roughly 1000 pM, 300 pM and 1080 pM, respectively. The Mean is 170000 in test [5], 184000 in test [6] and 6980 in test [7]. Moreover, the “Q2 (percent of cells positive for GFP and for the APC signal of PD1-His, antibody present)” value in test [8] was 0.27%.
